In general, Kd refers to a measure of binding affinity in units of concentration. The low end stands for a tighter complex, the high end for a looser complex.

Data on two molecules can be found in publication PMC8556680.

Data set [1] has as its target T1, GST-ZNF410 ZF1-ZF5 (Homo sapiens, UniProt Q86VK4 217-366).
T1 sequence: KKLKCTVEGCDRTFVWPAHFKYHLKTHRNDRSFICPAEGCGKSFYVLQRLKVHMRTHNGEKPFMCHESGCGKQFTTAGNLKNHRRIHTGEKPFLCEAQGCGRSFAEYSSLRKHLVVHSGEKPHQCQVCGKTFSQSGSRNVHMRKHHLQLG
The data set can be described thus: fluorescence polarization. On the technique in general: Polarisation of emitted light reports the rotation of a fluorescent probe.

Data set [2] deals with T1, GST-ZNF410 ZF1-ZF5. Nature of the data set: fluorescence polarization. This is another data set of the same source.

B1: negative control oligo (FAM) (dsDNA)
DNA 1: TCCACTGCCAGGACCTTT
DNA 2: AAAAGGTCCTGGCAGTGG
Consider B1, for which the binding result in data set [1] was “no binding”.

B2: 17-bp consensus oligo (FAM) (dsDNA)
DNA 1: CACATCCCATAATAATG
DNA 2: CATTATTATGGGATGTG
For B2, the Kd in data set [2] was 22 nM.
